The values that follow come from paper PMC3431625.

Test [1] addresses Bovine collagen type IV (bovine) (UniProt Q7SIB2). Description: ELISA. On the technique in general: An ELISA detects its analyte on a solid surface through an enzyme-linked reagent.
For test [2], the target named is Pepsinized collagen type II (UniProt P02459). Description: ELISA.
Chain of Pepsinized collagen type II (P02459 26-1487): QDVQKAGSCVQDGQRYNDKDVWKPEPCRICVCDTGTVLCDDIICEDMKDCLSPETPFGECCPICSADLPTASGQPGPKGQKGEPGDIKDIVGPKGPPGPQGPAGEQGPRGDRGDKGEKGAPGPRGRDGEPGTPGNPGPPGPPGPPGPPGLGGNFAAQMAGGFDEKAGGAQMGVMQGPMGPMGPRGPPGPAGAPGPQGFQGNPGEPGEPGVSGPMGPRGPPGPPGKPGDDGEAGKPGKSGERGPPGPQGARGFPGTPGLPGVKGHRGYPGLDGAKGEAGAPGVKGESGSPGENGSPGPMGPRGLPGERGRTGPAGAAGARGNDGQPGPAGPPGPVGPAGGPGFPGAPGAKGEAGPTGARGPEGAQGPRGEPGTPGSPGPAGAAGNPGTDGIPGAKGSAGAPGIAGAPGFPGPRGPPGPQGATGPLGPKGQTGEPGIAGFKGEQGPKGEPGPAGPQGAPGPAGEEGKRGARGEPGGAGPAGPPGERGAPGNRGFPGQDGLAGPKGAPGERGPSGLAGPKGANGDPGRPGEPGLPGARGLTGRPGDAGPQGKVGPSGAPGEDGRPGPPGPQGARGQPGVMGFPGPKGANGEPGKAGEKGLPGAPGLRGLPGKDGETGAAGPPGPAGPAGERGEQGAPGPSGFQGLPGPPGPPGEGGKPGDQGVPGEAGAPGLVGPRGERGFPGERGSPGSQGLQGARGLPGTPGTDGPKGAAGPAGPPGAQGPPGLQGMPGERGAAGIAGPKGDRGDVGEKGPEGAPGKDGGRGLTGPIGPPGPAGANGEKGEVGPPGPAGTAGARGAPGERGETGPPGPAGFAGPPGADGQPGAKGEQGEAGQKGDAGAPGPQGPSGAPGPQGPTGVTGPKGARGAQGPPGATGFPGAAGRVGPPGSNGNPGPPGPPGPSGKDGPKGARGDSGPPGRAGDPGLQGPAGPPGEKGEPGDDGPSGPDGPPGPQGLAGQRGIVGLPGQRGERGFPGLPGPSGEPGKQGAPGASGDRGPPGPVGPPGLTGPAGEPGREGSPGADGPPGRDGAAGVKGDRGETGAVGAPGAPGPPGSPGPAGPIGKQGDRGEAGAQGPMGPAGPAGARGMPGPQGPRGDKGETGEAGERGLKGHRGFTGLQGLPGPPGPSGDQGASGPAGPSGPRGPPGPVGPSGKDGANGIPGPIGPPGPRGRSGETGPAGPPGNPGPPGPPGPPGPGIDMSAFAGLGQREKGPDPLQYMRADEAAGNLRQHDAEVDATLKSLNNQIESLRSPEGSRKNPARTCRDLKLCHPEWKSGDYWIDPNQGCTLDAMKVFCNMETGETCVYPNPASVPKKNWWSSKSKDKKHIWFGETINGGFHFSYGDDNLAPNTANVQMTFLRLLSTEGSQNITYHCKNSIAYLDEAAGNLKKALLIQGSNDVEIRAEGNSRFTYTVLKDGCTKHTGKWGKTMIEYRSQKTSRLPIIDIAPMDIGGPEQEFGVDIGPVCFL

Chain of Bovine collagen type IV (bovine) (Q7SIB2 28-1669, chain 1 of 2): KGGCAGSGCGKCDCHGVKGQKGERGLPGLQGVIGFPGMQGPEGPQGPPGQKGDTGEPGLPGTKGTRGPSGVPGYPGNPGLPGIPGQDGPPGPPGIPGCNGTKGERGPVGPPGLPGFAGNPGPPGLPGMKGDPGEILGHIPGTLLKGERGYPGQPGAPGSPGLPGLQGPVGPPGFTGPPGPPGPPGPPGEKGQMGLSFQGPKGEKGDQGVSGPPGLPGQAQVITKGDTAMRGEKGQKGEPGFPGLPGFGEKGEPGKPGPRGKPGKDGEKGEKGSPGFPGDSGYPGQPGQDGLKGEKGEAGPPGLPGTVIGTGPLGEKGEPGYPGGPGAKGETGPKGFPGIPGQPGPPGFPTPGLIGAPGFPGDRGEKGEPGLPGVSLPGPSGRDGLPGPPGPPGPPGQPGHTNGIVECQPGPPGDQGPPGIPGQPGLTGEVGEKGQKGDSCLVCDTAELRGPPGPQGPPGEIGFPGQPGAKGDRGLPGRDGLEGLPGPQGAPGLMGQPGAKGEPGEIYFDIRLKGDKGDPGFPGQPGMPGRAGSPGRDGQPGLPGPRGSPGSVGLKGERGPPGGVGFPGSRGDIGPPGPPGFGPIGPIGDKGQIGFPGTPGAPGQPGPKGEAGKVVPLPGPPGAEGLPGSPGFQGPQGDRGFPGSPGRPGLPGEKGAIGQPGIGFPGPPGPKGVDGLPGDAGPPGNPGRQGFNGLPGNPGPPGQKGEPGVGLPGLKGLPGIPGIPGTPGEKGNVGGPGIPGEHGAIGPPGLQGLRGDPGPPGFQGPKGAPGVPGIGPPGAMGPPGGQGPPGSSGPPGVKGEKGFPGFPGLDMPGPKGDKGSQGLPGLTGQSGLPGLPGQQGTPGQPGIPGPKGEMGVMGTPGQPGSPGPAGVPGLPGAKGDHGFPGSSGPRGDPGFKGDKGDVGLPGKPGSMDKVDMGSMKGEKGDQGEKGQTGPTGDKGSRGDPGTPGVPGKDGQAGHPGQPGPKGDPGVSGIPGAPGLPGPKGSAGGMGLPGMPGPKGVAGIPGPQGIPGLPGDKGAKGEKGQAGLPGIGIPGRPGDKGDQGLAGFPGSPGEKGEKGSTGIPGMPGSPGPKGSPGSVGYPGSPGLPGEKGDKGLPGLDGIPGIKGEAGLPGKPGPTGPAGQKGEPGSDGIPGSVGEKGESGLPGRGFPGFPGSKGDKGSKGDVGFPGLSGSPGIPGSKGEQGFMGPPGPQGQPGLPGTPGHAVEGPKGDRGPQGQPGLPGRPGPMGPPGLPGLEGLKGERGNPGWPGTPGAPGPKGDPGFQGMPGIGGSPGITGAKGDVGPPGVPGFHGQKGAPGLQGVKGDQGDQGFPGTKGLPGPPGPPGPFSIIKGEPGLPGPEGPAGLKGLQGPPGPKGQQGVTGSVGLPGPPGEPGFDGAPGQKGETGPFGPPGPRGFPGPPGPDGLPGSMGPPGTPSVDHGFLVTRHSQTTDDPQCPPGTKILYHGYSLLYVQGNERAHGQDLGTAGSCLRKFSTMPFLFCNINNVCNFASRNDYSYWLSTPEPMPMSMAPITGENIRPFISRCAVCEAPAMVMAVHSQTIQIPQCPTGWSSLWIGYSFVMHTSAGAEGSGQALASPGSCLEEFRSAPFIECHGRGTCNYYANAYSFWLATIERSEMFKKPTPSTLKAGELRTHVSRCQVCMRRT
Chain of Bovine collagen type IV (bovine) (Q7SIB3 whole entry, chain 2 of 2, further chain): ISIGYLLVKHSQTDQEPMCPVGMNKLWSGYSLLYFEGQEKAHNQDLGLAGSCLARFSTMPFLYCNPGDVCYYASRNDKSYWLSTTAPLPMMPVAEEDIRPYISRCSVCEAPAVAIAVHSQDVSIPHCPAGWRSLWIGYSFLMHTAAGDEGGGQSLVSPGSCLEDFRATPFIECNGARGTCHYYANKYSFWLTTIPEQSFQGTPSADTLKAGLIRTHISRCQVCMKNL

B1: Recombinant bovine opticin (natural protein)
chain: ASLSEEREGDPYAILHLGDYVLSLDNYDEVIDPSNYDELIDYGDQLPQVKGTSLASLTRTRFTQSTEAARTLPSNPTTARPPTLGLLAAPANHGLPTCLICVCLGSSVYCDDADLENIPPLPQTTAYLYARFNRISHIRAGDFKGLTKLKRIDLSGNSISSIDDKALRLLPALRDLILPENKLVALPTLPTSIEVLDVRMNRLQSSGIQPEAFRALEKLQFLYLADNLLDAIPPSLPLSLRSLHLQNNMIETMQRDAFCDAEEHRHTRRPLEDIRLDGNPINLSLFPSAYFCLPRLPTGRFV
As to B1, the dissociation constant (Kd) (commonly the constant that tells how readily two partners part at equilibrium) in test [1] was determined as 500 nM; in test [2] it was 40 nM.
